Among the data in patent US20250092426, “CAS ENDONUCLEASES AND RELATED METHODS” (Flagship Pioneering Innovations VII, LLC, published 2025) are activity values, retold here.

This series addresses T1, CasEnd-4 (synthetic construct).
T1 chain: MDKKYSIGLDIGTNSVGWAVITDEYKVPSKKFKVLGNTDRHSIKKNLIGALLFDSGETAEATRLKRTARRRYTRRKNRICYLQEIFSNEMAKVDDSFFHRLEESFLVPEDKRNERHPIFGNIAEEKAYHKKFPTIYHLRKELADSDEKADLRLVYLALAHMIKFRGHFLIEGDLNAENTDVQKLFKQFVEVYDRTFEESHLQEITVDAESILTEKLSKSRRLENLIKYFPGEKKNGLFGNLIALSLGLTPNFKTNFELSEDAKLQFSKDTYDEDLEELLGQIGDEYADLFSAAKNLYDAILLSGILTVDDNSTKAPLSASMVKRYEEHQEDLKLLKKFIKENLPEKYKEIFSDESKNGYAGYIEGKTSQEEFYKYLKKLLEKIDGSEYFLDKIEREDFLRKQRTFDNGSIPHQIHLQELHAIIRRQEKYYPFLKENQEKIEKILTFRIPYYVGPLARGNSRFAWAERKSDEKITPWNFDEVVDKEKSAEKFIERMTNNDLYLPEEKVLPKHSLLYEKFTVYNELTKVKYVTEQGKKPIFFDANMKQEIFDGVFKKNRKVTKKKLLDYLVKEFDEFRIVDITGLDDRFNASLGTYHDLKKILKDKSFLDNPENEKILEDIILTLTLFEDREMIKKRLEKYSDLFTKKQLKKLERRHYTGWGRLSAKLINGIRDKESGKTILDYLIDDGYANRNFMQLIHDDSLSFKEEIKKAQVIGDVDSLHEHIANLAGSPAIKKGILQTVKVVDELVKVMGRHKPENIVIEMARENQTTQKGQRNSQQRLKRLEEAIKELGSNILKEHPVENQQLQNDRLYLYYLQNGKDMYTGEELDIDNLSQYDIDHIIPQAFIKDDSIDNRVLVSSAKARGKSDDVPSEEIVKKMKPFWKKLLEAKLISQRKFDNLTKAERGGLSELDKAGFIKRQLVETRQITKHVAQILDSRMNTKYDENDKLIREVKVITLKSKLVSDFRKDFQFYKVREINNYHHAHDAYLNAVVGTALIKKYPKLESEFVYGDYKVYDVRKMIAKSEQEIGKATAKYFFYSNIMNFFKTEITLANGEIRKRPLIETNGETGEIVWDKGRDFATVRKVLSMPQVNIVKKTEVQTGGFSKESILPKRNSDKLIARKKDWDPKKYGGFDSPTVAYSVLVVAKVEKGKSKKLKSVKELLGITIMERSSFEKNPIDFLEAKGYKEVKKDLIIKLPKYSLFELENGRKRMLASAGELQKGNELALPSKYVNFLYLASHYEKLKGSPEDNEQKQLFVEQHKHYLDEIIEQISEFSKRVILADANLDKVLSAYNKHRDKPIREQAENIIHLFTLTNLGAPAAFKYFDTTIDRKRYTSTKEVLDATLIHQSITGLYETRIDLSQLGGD
Put plainly: cell_activity; +++; HEK293T; PAM not stated. A digest of the protocol: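 Editing activity was scored as the fraction of GFP+ cells on day 4 by flow cytometry. BFP-expressing HEK293T cells (250,000) received by nucleofection 200 ng plasmid for the RT-Cas fusion protein and 200 ng template RNA plasmid designed to convert BFP to GFP.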

Where only a bound is given, the exact number is not on record here.

B1: BFP-to-GFP template RNA ; BFP reporter protospacer (ssRNA ; dsDNA)
RNA: GCCGAAGCACUGCACGCCGUGUUUUAGAGCUAGAAAUAGCAAGUUAAAAUAAGGCUAGUCCGUUAUCAACUUGAAAAAGUGGCACCGAGUCGGUGCACCCUGACGUACGGCGUGCAGUGCUU
DNA 1: GCCGAAGCACTGCACGCCGT
DNA 2: ACGGCGTGCAGTGCTTCGGC
As for B1, the activity was ≥ 100 % of reference.
